Data on three variants can be found in article PMC7588443 (Nature Communications, 2020).

First the molecules themselves.
B1: unnamed (parent)
chain 1: ECPDRWRAEIDLGLPPGVQVGDLLRNEQTMGSLRQVYLLAVQANSITDHLKRFDAVRVPESCRGVVEAQVAKLEAVRSVIWNTMISLAVSGIEMDENGLKALLDKQAGDSLALMEMEKVATALKMD
chain 2: MQKVSLRVTPRLVLEVNRHNAICVATNVPEFYNARGDLNIRDLRAHVKARMISSQFCGYVLVSLLDSEDQVDHLNIFPHVFSERMILYKPNNVNLMEMCALLSMIENAKSPSIGLCREVLGRLTLLHSKCNNLDSLFLYNGARTLLSTLVKYHDLEEGAATPGPWNEGLSLFKLHKELKRAPSEARDLMQSLFLTSGKMGCLARSPKDYCADLNKEEDANSGFTFNLFYQDSLLTKHFQCQTVLQTLRRKCLGSDTVSKIIP

By Kd is commonly meant the free concentration of one partner at which half of the binding sites on the other are occupied at equilibrium, for simple one-to-one binding.

The first experiment covers variants of B1. Nature of the experiment: BLI. The following applies: with partner chain of the complex shown; 10 μg ml−1 His-tagged BBRF2Δ; BSRF1Δ(N59K) at 500, 250, 125, 62.5, 31.3 nM.
Regarding chain 1 ECPDRWRAEIDLGLPPGVQVGDLLRKEQTMGSLRQVYLLAVQANSITDHLKRFDAVRVPESCRGVVEAQVAKLEAVRSVIWNTMISLAVSGIEMDENGLKALLDKQAGDSLALMEMEKVATALKMD [chain 1 N26K], the Kd was 0.0599 µM.

The same experiment, now with this note: with partner chain of the complex shown; 10 μg ml−1 His-tagged BBRF2Δ(F209K); BSRF1Δ at 500, 250, 125, 62.5, 31.3, 15.6 nM.
Regarding chain 2 MQKVSLRVTPRLVLEVNRHNAICVATNVPEFYNARGDLNIRDLRAHVKARMISSQFCGYVLVSLLDSEDQVDHLNIFPHVFSERMILYKPNNVNLMEMCALLSMIENAKSPSIGLCREVLGRLTLLHSKCNNLDSLFLYNGARTLLSTLVKYHDLEEGAATPGPWNEGLSLFKLHKELKRAPSEARDLMQSLKLTSGKMGCLARSPKDYCADLNKEEDANSGFTFNLFYQDSLLTKHFQCQTVLQTLRRKCLGSDTVSKIIP [chain 2 F193K], the Kd came to 0.0539 µM.

Still in this experiment, the particulars now being: with partner chain of the complex shown; 10 μg ml−1 His-tagged BBRF2Δ; BSRF1Δ(M63D) at 500, 250, 125, 62.5, 31.3, 15.6 nM.
With chain 1 ECPDRWRAEIDLGLPPGVQVGDLLRNEQTDGSLRQVYLLAVQANSITDHLKRFDAVRVPESCRGVVEAQVAKLEAVRSVIWNTMISLAVSGIEMDENGLKALLDKQAGDSLALMEMEKVATALKMD [chain 1 M30D], the Kd amounted to 0.126 µM.
